Where two headings read alike, the source gives them in different places.
Molecular target: T1, ZafA ZF3-6 (Aspergillus fumigatus) (UniProt Q4WT96)
T1 sequence: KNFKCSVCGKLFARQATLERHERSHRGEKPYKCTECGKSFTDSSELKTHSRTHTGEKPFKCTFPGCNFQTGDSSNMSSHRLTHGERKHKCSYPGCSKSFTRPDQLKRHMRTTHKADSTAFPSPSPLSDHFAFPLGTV
Assay: EMSA

Row | Sequence | binding (EMSA buffer 25 mM Tris-HCl pH 8, 50 mM KCl, 1 mM MgCl2, 12.5% glycerol, 1 mM DTT, 0.2 ug BSA, protein dialyzed in buffer with 10 uM ZnCl2, 30 C (EMSA 1 h …)) | binding
1 | ATGTCCGCACGGAGAGCCACAAACGAGCGGGGCCCCGTACGTGCTCTCCTACCCCAGGATCGCATCCCCGCATAGCTGAACATCTATATAAAGACCCCCAAGGTTCTCAGTCTCACCAACATCATCAACCAACAATCAACAGTTCTCTACTCAGTTAATTAGAACTCTTCCAATCCTATCACCTCGCCTCACCATGGCCATCTAGAGGTACCA (double strand) [PalcA wild type 213 bp EMSA fragment] | binds | –
2 | TGGTACCTCTAGATGGCCATGGTGAGGCGAGGTGATAGGATTGGAAGAGTTCTAATTAACTGAGTAGAGAACTGTTGATTGTTGGTTGATGATGTTGGTGAGACTGAGAACTGAGGGGGTCTTTATATAGATGTTCAGCTATGCGGGGATGCGATCCTGGGGTAGGAGAGCACGTACGGGGCCCCGCTCGTTTGTGGCTCTCCGTGCGGACAT (double strand) [PalcA mutant (CAAGGT to CTCAGT)] | – | no binding
